Data on two molecules can be found in patent US20160333418A1 (SANTA MARIA BIOTHERAPEUTICS, published 2016).

The target of assay [1] is T1, activin A (human, UniProt P08476 311-426).
T1 construct: also called homodimer of the polypeptide chains betaA; INHBA product
T1 sequence: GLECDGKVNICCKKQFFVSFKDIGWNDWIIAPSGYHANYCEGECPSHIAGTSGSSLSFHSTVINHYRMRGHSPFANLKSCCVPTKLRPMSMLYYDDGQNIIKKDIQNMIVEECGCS
The assay can be described thus: KinExA solution equilibrium binding, ligand-coated beads, room temperature. As to the method:
(§1) Solution-based equilibrium-binding assays using KinExA™ technology (Sapidyne Instruments, Inc.) were used to determine the dissociation equilibrium (KD) of ligand binding to ActRIIB-Fc polypeptides. UltraLink Biosupport beads (Pierce) was pre-coated with about 100 μg/m1 each of myostatin, GDF-11, and activin A overnight, and then blocked with BSA. 1 pM and 3 pM of ActRIIB-Fc (E28W) (SEQ ID NO: 21) and svActRIIB-Fc (E28W, S44T) (SEQ ID NO: 10) samples were incubated with various concentrations (0.7 fM to 160 pM) of myostatin, activin A, and GDF-11 respectively in sample buffer at room temperature for 8 hours before being run through the ligand-coated beads. The amount of the bead-bound soluble receptor was quantified by fluorescent (Cy5) labeled goat anti-human-Fc antibody at 1 mg/ml in superblock. The binding signal is proportional to the concentration of free soluble receptor at equilibrium with a given myostatin, activin A, or GDF-11 concentration. KD was obtained from the nonlinear regression of the competition curves using a dual-curve one-site homogeneous binding model provided in the KinEx A™ software (Sapidyne Instruments, Inc.).
Background: A kinetic exclusion assay measures how much of one partner remains free in solution.

Assay [2] concerns the target T2, myostatin (human, UniProt O14793 267-375).
T2 construct: also called GDF-8; growth/differentiation factor 8
T2 sequence: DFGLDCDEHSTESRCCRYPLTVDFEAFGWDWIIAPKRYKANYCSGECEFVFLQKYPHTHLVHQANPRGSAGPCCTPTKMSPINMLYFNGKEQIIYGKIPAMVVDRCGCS
The assay is described as above. As to the method:
as §1

For assay [3], the target named is T1, activin A. As to the kind of experiment: cell-based or functional assay.
The target in assay [4] is T2, myostatin. The assay can be described thus: cell-based or functional assay.
The target in assay [5] is GDF-11 (Homo sapiens (Human)) (UniProt O95390). The assay can be described thus: KinExA solution equilibrium binding, ligand-coated beads, room temperature.
For assay [6] the target is unchanged. As to the kind of experiment: cell-based or functional assay.

B1: ActRIIB-Fc (E28W) (Fc fusion)
chain: ETRWCIYYNANWELERTNQSGLERCEGEQDKRLHCYASWRNSSGTIELVKKGCWLDDFNCYDRQECVATEENPQVYFCCCEGNFCNERFTHLPEAGGPEVTYEPPPTAPTGGGGSVECPPCPAPPVAGPSVFLFPPKPKDTLMISRTPEVTCVVVDVSHEDPEVQFNWYVDGVEVHNAKTKPREEQFNSTFRVVSVLTVVHQDWLNGKEYKCKVSNKGLPAPIEKTISKTKGQPREPQVYTLPPSREEMTKNQVSLTCLVKGFYPSDIAVEWESNGQPENNYKTTPPMLDSDGSFFLYSKLTVDKSRWQQGNVFSCSVMHEALHNHYTQKSLSLSPGK
notes: also called ActRIIB-IgG2Fc (E28W); ActRIIB-IgG Fc (E28W)
By Kd is commonly meant the free concentration of one partner at which half of the binding sites on the other are occupied at equilibrium, for simple one-to-one binding. A higher Kd goes with lower affinity. As to B1, the Kd was found to be 0.2 pM with activin A [1], 0.1 pM with myostatin [2] and 0.1 pM in assay [5]. The “IC50, luciferase activity in C2C12/pMARE reporter cells, 4 nM ligand” value with activin A [3] was found to be 3.2 nM; in the assay with myostatin [4], 0.95 nM; in assay [6], 2.4 nM.

B2: svActRIIB-Fc (E28W, S44T) (Fc fusion)
chain: ETRWCIYYNANWELERTNQTGLERCEGEQDKRLHCYASWRNSSGTIELVKKGCWLDDFNCYDRQECVATEENPQVYFCCCEGNFCNERFTHLPEAGGPEVTYEPPPTAPTGGGGSVECPPCPAPPVAGPSVFLFPPKPKDTLMISRTPEVTCVVVDVSHEDPEVQFNWYVDGVEVHNAKTKPREEQFNSTFRVVSVLTVVHQDWLNGKEYKCKVSNKGLPAPIEKTISKTKGQPREPQVYTLPPSREEMTKNQVSLTCLVKGFYPSDIAVEWESNGQPENNYKTTPPMLDSDGSFFLYSKLTVDKSRWQQGNVFSCSVMHEALHNHYTQKSLSLSPGK
notes: also called svActRIIB-IgG2Fc (E28W, S44T); svActRIIB-IgG Fc (E28W, S44T)
With B2, the equilibrium dissociation constant (Kd) (with activin A [1]; in the assay with myostatin [2]; in assay [5]) was 0.1 pM in each case. Also, the “IC50, luciferase activity in C2C12/pMARE reporter cells, 4 nM ligand” value with activin A [3] was 3.6 nM; with myostatin [4], 1.07 nM; in assay [6], 2.4 nM.
